{"source": "paper PMC5024086", "about": "“Fine-tuning of amino sugar homeostasis by EIIA^Ntr in Salmonella Typhimurium” (Scientific Reports, 2016)", "molecules": {"B1": {"name": "GlmS in solution (SEC-MALS) (enzyme, Salmonella Typhimurium, UniProt Q8ZKX1 1-609, looked up)", "chain": "MCGIVGAIAQRDVAEILLEGLRRLEYRGYDSAGLAVVDAEGHMTRLRRLGKVQMLAQAAEEHPLHGGTGIAHTRWATHGEPSEANAHPHVSEHIVVVHNGIIENHEPLREALKARGYTFVSETDTEVIAHLVNWELKQGGTLREAVLRAIPQLRGAYGTVIMDTRHPDTLLAARSGSPLVIGLGMGENFIASDQLALLPVTRRFIFLEEGDIAEITRRSVNIFDNTGAEVKRQDIESNLQYDAGDKGIYRHYMQKEIYEQPNAIKNTLTGRISHGQVDLSELGPNADELLSKVEHIQILACGTSYNSGMVSRYWFESLAGIPCDVEIASEFRYRKSAVRRNSLMITLSQSGETADTLAGLRLSKELGYLGSLAICNVPGSSLVRESDLALMTNAGTEIGVASTKAFTTQLTVLLMLVAKLSRLKGLDASIEHDIVHGLQALPSRIEQMLSQDKRIELLAEDFSDKHHALFLGRGDQYPIALEGALKLKEISYIHAEAYAAGELKHGPLALIDADMPVIVVAPNNELLEKLKSNIEEVRARGGQLYVFADQDAGFVSNDNMHIIEMPHVEEVIAPIFYTVPLQLLAYHVALIKGTDVDQPRNLAKSVTVE", "notes": "D-glucosamine-6-phosphate synthase (GlmS), Salmonella Typhimurium; 128 kDa dimer by SEC-MALS; it may be the same as m7; also called GlmS dimer"}}, "key": {"[1]": {"target": "GlmS in solution (SEC-MALS) (Salmonella Typhimurium) (UniProt Q8ZKX1)", "assay": "SEC-MALS; Superdex 200 10/300 GL, 20 mM Tris-HCl pH 8.0, 300 mM NaCl, 2 mg protein injected, 0.5 ml/min; proteins alone or in combination"}, "[2]": {"target": "the molecule itself", "assay": "SEC-MALS; Superdex 200 10/300 GL, 20 mM Tris-HCl pH 8.0, 300 mM NaCl, 2 mg protein injected, 0.5 ml/min; proteins alone or in combination"}}, "data": [{"molecule": "EIIA^Ntr in solution (SEC-MALS) (natural protein)", "values": [{"measurement": "stoichiometry N (EIIA^Ntr per GlmS chain (1:2))", "setting": "[1]", "result": 0.5}]}, {"molecule": "B1", "values": [{"measurement": "stoichiometry N", "setting": "[2]", "result": 2}]}]}
